The values that follow come from patent CN115181181A (NANJING RONGJIEKANG BIOTECHNOLOGY CO LTD, dated 2022).

T1: 人源重组CD25蛋白 (human IL-2RA) (human, UniProt P01589 22-240)
T1 construct: extracellular domain; also called CD25重组蛋白; 人源重组胞外结构域蛋白
T1 sequence (looked up): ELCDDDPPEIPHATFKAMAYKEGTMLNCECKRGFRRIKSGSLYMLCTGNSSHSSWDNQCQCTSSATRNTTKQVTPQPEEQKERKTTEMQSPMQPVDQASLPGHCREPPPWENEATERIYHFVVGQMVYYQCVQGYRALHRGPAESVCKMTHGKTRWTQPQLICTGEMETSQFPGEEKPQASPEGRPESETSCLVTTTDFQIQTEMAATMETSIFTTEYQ

B1: 单域抗体1A5 (原核粗提VHH) (VHH)
VHH: ESGGGSVQAGGSLRLSCAASGYTYSSNCMGWFRQAPGKEREGVAAIDTGGGHTYYADSVVKGRFTISQDNAKNTVYLQMNSLKPEDTAMYYCAADSGYCYAEEPAPDRFGYWGQGTQVTVSS
notes: also called VHH1; not shown: tags from the pMECS vector (detected with anti-HA antibody)
B2: 单域抗体4A4 (原核粗提VHH) (VHH)
VHH: ESGGGSVQAGETLRLSCTASGFTFDDSDMGWYRQAPGNECELVSIMRSDRSTYYAASVKGRFTISQDNAKNTVYLQMNSLKPEDTAVYHCAAAGAISIAAACPTHWWGQGTQVTVSS
notes: also called VHH9; not shown: tags from the pMECS vector (detected with anti-HA antibody)
B3: 单域抗体3F5 (原核粗提VHH) (VHH)
VHH: ESGGGSVQAGGSLRLSCAASGYTYSRNCVGWFRQAPGKEREGVAAIDSGGGYSYYADSVKGRFTISQDNAKNTVFLQMNSLKPEDTAVYYCAAEPASCFPHVPTEVDFGYWGRGTQVTVSS
notes: also called VHH7; not shown: tags from the pMECS vector (detected with anti-HA antibody)
B4: 单域抗体3E11 (原核粗提VHH) (VHH)
VHH: ESGGGSVQAGGSLRLSCVASGYTYSRRCMGWFRQAPGKEREGVAAIYSGNGVTYYPDSVKGRFTISQDNAKNTVYLQMNSLKPEDTAMYYCAAQGDYCYAHAPEPADFGYWGQGTQVTVSS
notes: also called VHH6; not shown: tags from the pMECS vector (detected with anti-HA antibody)
B5: 单域抗体1B5 (原核粗提VHH) (VHH)
VHH: ESGGGSVQAGGSLRLSCAASGYTYSSNCMGWFRQAPGKEREGVAAIDTGGGYTYYADSVEGRFTISQDKAKNTVYLQMNSLKPEDTAMYYCAADTGRCFPHVPYEVDFGYWGQGTQVTVSS
notes: also called VHH2; not shown: tags from the pMECS vector (detected with anti-HA antibody)
B6: 单域抗体2H3 (原核粗提VHH) (VHH)
VHH: ESGGGSVQAGGSLRLSCAASGHTSSSNRMGWFRQAPGKEPEGVAVISTGGGRTLYADSVKGRFTISQDNAKNTLGLQMNSLKPEDTAMYYCAAAASSIAISRFWTWPPKEFFDYWGQGTQVTVSS
notes: also called VHH5; not shown: tags from the pMECS vector (detected with anti-HA antibody)
B7: 单域抗体1H1 (原核粗提VHH) (VHH)
VHH: ESGGGSVQAGGSLRLSCAASGYTSRRNCMGWFRQAPGKEREGVAAINTAGGHTYYADSVEGRFTISQDNARNTVYLQMNSLKPEDTGMYYCAAETGSYCYAHVPESADFGYWGQGTQVTVSS
notes: also called VHH4; not shown: tags from the pMECS vector (detected with anti-HA antibody)
B8: 单域抗体4D9 (原核粗提VHH) (VHH)
VHH: ESGGGSVQAGGSLRLSCAASGYPYRRNCMGWFRQAPGKEREGVAAIDSAGTTTYADSVKGRFTISKDDAKNTLYLQMNSLKPEDTAMYYCALNAPTWECRAGGAPAFAYSGQGTQVTVSS
notes: also called VHH10; not shown: tags from the pMECS vector (detected with anti-HA antibody)
B9: 单域抗体3G3 (原核粗提VHH) (VHH)
VHH: ESGGGSVQAGGSLRLSCVGSRYTSITGCMGWFRQAPGKEREGVAAIDTGGGHTYYADSVKGRFTIAQDNAKNTVYLQVNSLKPEDTGMYYCAAEASPCFPHNPQVADFGYWGQGTQVTVSS
notes: also called VHH8; not shown: tags from the pMECS vector (detected with anti-HA antibody)
B10: 单域抗体4H7 (原核粗提VHH) (VHH)
VHH: ESGGGSVQAGGSLRLSCAASESTYRRTYMAWFRQAPGKERDGVAVIYTGNGVTWYADSVEGRFTISQDNAKNTVYLQMNSLKPEDTAMYYCAADSMRGRNVLHSGFYHYWGQGTQVTVSS
notes: also called VHH11; not shown: tags from the pMECS vector (detected with anti-HA antibody)
B11: 单域抗体1E1 (原核粗提VHH) (VHH)
VHH: ESGGGSVEAGGSLRLSCARPGYDYDTDYMGWFRQAPGKEREGVATIYTQKGFTWYADSVKGRFTISQDNAKNTVYLQMNSLKPEDTAMYYCAAADYGAATSKLNPSKYNAWGQGTQVTVSS
notes: also called VHH3; not shown: tags from the pMECS vector (detected with anti-HA antibody)

This experiment addresses T1, 人源重组CD25蛋白 (human IL-2RA). The experiment in a line: screening ELISA: crude VHH extract on coated CD25, anti-HA-HRP detection; positive if OD450 is over 5 times the control.
As to B1, the binding result is “binds”.
Consider B2, for which the binding result is “binds”.
As for B3, the binding result is “binds”.
For B4, the binding result is listed as “binds”.
For B5 the value was “binds”; for B6, “binds”; for B7, “binds”.
As for B8, the binding result is “binds”.
In the case of B9 it was “binds”.
In the case of B10 it was “binds”; in that of B11, “binds”.
